{"source": "patent US20220363763A1", "binders": {"B1": {"name": "147H mouse monoclonal antibody (antibody, V domains shown)", "VH": "QVQLQQSGSELVRPGTSVKISCKASGYTFTNYWLGWIKQRPGHGLEWIGDIYPGGDYINYNEKFKGKATLSADTSSSTAYMQLSSLTSEDSAVYFCARPNLPGDYWGQGTSVTVSS", "VL": "DIVMTQAAFSNPVTLGTSASISCRSSKSLLHSNGITYLYWYLQKPGQSPQLLIYQVSNLASGVPGRFSGSGSGTDFTLRISRVEAEDVGVYYCAQNLELPWTFGGGTKLEIK"}}, "target": "human D1-D2 truncated LAG-3-ECD-human IgG1 fusion protein (human) (UniProt P18627)", "sequence (P18627 253-450)": "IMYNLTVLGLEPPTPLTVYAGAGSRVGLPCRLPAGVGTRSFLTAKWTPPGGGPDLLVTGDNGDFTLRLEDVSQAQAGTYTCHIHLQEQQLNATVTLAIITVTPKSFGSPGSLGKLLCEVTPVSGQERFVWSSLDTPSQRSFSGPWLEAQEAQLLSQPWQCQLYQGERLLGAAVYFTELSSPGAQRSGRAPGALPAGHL", "assay": "ELISA on coated ΔD1-D2 huFc; EC50 table has no unit, x axis Ab(nM); fit value of a flat curve", "data": [{"binder": "B1", "values": [{"measurement": "EC50", "value": 2.62, "unit": "nM"}]}]}
